These results are taken from article PMC5240998 (2017).

The target in assay [1] is T1, GI.7 norovirus virus-like particles (norovirus GI.7 (strain )). In words: SPR; kinetic fit; VLPs captured by mAb 3912. In general terms: In SPR one partner is held on a chip, and binding of the other changes the refractive index at the surface.
In assay [2] the target is T2, GI.1 norovirus (Norwalk virus) virus-like particles (Norwalk virus (norovirus GI.1), UniProt Q83884 1-530).
T2 chain: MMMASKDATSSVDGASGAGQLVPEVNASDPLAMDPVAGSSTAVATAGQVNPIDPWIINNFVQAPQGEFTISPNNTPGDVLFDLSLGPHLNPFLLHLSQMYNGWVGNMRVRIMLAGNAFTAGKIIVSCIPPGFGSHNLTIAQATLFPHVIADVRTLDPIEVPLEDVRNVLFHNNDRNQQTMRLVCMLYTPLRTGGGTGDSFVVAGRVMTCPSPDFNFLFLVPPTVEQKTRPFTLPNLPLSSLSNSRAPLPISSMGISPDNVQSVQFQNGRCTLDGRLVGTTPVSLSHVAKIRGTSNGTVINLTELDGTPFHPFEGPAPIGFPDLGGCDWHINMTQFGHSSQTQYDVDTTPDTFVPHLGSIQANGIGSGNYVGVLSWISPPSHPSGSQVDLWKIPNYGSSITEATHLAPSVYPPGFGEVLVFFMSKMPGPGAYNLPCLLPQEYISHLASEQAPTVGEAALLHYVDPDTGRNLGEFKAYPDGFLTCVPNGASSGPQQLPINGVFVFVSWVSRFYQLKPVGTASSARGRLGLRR
In words: SPR; kinetic fit; VLPs captured by mAb 3912.

Assay [3] concerns the target T1, GI.7 norovirus virus-like particles. In words: SPR; VLPs captured by mAb 3912.
Assay [4] concerns the target T2, GI.1 norovirus (Norwalk virus) …. The assay is described as follows: SPR; VLPs captured by mAb 3912.

In general, koff refers to the rate constant with which the complex falls apart. The low end stands for slow dissociation, the high end for fast dissociation.

B1: Purified NJT-R3-A3 scFv soluble protein (scFv, V domains shown)
VH: EVQLLESGGGLVQPGGSLRLSCAASGFTFSSYAMSWVRQAPGKGLEWVSSIPRPGLHTSYADSVKGRFTISRDNSKNTLYLQMNSLRAEDTAVYYCAKHLRTFDYWGQGTLVTVSS
VL: DIQMTQSPSSLSASVGDRVTITCRASQSISSYLNWYQQKPGKAPKLLIYGASRLQSGVPSRFSGSGSGTDFTLTISSLQPEDFATYYCQQLPAVPITFGQGTKVEIK
On to B1, for which the Ka in assay [1] turned out to be 2.02e+07 M⁻¹; in assay [2] it was 3.69e+07 M⁻¹. Also, the koff amounted to 0.00224 s⁻¹ in assay [3] and 0.00149 s⁻¹ in assay [4].
